What follows are sequences tested against HLA-A*02:01 (assay: IEDB peptide-MHC binding, purified MHC/competitive/radioactivity; filed as Kd, often an IC50 or EC50 that approximates it; ≥ and ≤ were set here for values at or beyond the usual limits of such assays). Details: source organism: Homo sapiens.

| Kd [µM] | Sequence |
| --- | --- |
| 1 | LLVFACSAVPV |
| 1.35 | WLLVFACSAV |
| 0.143 | FLYGALLL |
| 4.17 | GLCFFGVAL |
| 0.781 | FACSAVPVYI |
| 0.658 | YALTVVWLLV |
| 0.0094 | SLLTFMIAA |
| 1.28 | VLPWIAFPGKV |
| 0.455 | LVLFACSAV |
| 0.909 | SLSRFSWGA |
| ≥ 5 | FLPRHRDTGI |
| 0.01 | FMIAATYNFAV |
| 4.54 | KVCGSNLLSI |
| ≥ 25 | WLGHPDKFVGI |
| 7.14 | ALTVVWLL |
| 0.093 | IAATYNFAV |
| 2.63 | TLVSLLTFMI |
| ≥ 50 | WLLVFACSA |

| Kd [µM] | Sequence |
| --- | --- |
| 0.357 | SLCADARMYGV |
| 1.92 | LVSLLTFMI |
| 1.85 | QMTFHLFI |
| 1.61 | LVFACSAVPV |
| ≥ 50 | ALTGTEKL |
| 1.09 | HLFIAAFV |
| 1.22 | VIHAFQYVI |
| 0.0026 | FLYGALLLA |
| 0.096 | GLLECCARCLV |
| ≥ 50 | ALTGTEKLI |
| 6.25 | CLVGAPFASLC |
| 0.119 | YALTVVWLL |
| ≥ 50 | VVHFFKNIV |
| 1.67 | QMTFHLFIA |
| 2.38 | TLSKIFKL |
| ≥ 50 | WLGHPDKFV |
| 0.029 | RMYGVLPWI |
| ≥ 50 | FLPRHRDTGIL |

Reference: the Immune Epitope Database (IEDB)
